Patent US20130316929A1 (Daiichi Sankyo, published 2013)

Experiments:
[1] = molecular target: T1, Recombinant Human VEGF165 (human, UniProt P15692-4 27-191); experiment: phage panning and phage ELISA on hVEGF
T1 construct: Isoform VEGF165; also called hVEGF

[2] = molecular target: T2, Recombinant Human EGF R/Fc Chimera, CF (human, UniProt P00533 25-645; P01857 100-330 = IgG part); experiment: phage panning and phage ELISA on hEGFR/Fc (TACI_d2 mutant binding to the extracellular domain of human EGFR)
T2 construct: range 25-645;range 100-330; R&D systems product; also called hEGFR/Fc

Recombinant Human TNF-α = molecular target: T3, Recombinant Human TNF-α (human, UniProt P01375 77-233); experiment: phage panning and phage ELISA on hTNF-α
T3 construct: also called hTNF-α

[3] = molecular target: T4, Recombinant Human EphA2, CF (human, UniProt P29317 25-534); experiment: phage ELISA, hEphA2 immobilized on a Maxisorp plate, two-fold dilutions of phage stock, anti-M13-HRP, OD405 nm [A) (1]
T4 construct: Bought recombinant protein; also called hEphA2; recombinant hEphA2
Experimental: (§1) As to 3 clones (α-EphA2 #1 to #3: corresponding to SEQ ID NOs: 3 to 5, respectively, in the Sequence Listing and to Nos. 2 to 4, respectively in FIG. 4) selected from the Escherichia coli colonies after the final round of panning with hEphA2 as a target molecule, an Escherichia coli suspension with OD_{600 nm}=0.3 was prepared using 2×YT/Amp/1% Glu. The Escherichia coli cells of each clone were shake-cultured at 37° C. and allowed to grow until OD_{600 nm}=0.5. A sufficient amount of helper phages M13K07 was added thereto to infect the cells at 37° C. for 30 minutes. After addition of 2×YT/Amp/Kan/0.25 mM IPTG, the helper phage-infected Escherichia coli was shake-cultured overnight at 22° C. 20% PEG/2.5 M NaCl solution was added to the recovered culture supernatant to precipitate phages. The precipitated phages were suspended in PBS. This phage stock solution and a series of two-fold dilutions with PBS were used in phage ELISA. An Escherichia coli TG-1 strain having a pCANTAB 5E vector containing the wild-type TACI_d2 gene was also subjected to the same operation as above to prepare phages.
(§2) TACI_d2 mutant-displaying phages were added to these Maxisorp plates and reacted for 2 hours. Each Maxisorp plate was washed with TBST. Then, an Anti-M13 antibody diluted 5000-fold was added thereto. After washing of the Maxisorp plate with TBST again, the amount of a phage bound with the protein solid-phase immobilized on the plate was detected as absorbance at a wavelength of 405 nm using ELISA POD.

[4] = molecular target: T5, human EphA2 expressed on cell surface (human, UniProt P29317 24-976); experiment: flow cytometry, phage stock on transfected HEK293T cells, anti-M13 antibody and fluorescein anti-mouse IgG, FL1 [A) (2]
T5 construct: whole, on cells; also called human EphA2-expressing cells
Experimental: as §1, with “The” for “As to 3 clones (α-EphA2 #1 to #3: corresponding to SEQ ID NOs: 3 to 5, respectively, in the Sequence Listing and to Nos. 2 to 4, respectively in FIG. 4) selected from the Escherichia coli colonies after the final round of panning with hEphA2 as a target molecule, an Escherichia coli suspension with OD_{600 nm}=0.3 was prepared using 2×YT/Amp/1% Glu. The”
(§3) The transfected cells were recovered. The recovered cells were suspended in a FACS buffer (PBS containing 5% FBS) and applied to a nylon mesh. The solution was dispensed in an amount of 5×10⁵ cells/well to 96 Well Cell Culture Cluster Round Bottom With Lid (manufactured by Costar, Corning Inc.) and centrifuged to remove a supernatant. The phage stock solution prepared in the paragraph 1) of Example 4 was added to the resulting cells at a concentration of 50 μL/well, and the mixture was left standing at 4° C. for 30 minutes. […] Fluorescently stained cells were detected.

[5] = molecular target: T1, Recombinant Human VEGF165; experiment: SPR, Biacore 3000, hVEGF immobilized on sensor chip, mutant applied at various concentrations
Source text: Examples of the determination-calculation system of surface plasmon resonance can include, but not limited to, Biacore system (GE Healthcare Japan Corp.). Procedures for the method using Biacore system are as follows: target molecules are immobilized onto a sensor chip of Biacore system by amine coupling; the target molecules are contacted with peptides at a plurality of peptide concentrations; the interaction therebetween is detected by surface plasmon resonance; a series of association and dissociation reactions is drawn in a sensorgram with time as the abscissa against the amount of binding (RU) as the ordinate; the sensorgram drawn at the plurality of peptide concentrations is fit to a 1:1 Langmuir model using BIAevaluation software (manufactured by GE Healthcare Japan Corp.) to calculate various rate parameters; and the dissociation constant is calculated from various rate parameters thus calculated.
The gene of the hVEGF-binding TACI_d2 mutant (No. 9 in FIG. 4: SEQ ID NO: 10 in the Sequence Listing) obtained in Example 2 was amplified by PCR and inserted to a vector pET-32a for expression in Escherichia coli (Novagen, Merck KGaA). […] The affinity of the mutant was determined by a surface plasmon resonance method using Biacore 3000 (GE Healthcare Japan Corp.). […] The dissociation constant of the mutant for hVEGF was determined from the obtained sensorgram.

[6] = molecular target: T5, human EphA2 expressed on cell surface; experiment: flow cytometry, phage stock on transfected HEK293T cells, anti-M13 antibody and fluorescein anti-mouse IgG, FL1 [A) (1]
Experimental: as §1, with “The” for “As to 3 clones (α-EphA2 #1 to #3: corresponding to SEQ ID NOs: 3 to 5, respectively, in the Sequence Listing and to Nos. 2 to 4, respectively in FIG. 4) selected from the Escherichia coli colonies after the final round of panning with hEphA2 as a target molecule, an Escherichia coli suspension with OD_{600 nm}=0.3 was prepared using 2×YT/Amp/1% Glu. The”
as §3

[7] = molecular target: T5, human EphA2 expressed on cell surface; experiment: flow cytometry, phage stock on transfected HEK293T cells, anti-M13 antibody and fluorescein anti-mouse IgG, FL1 [B) (4]
Experimental: as §1, with “The” for “As to 3 clones (α-EphA2 #1 to #3: corresponding to SEQ ID NOs: 3 to 5, respectively, in the Sequence Listing and to Nos. 2 to 4, respectively in FIG. 4) selected from the Escherichia coli colonies after the final round of panning with hEphA2 as a target molecule, an Escherichia coli suspension with OD_{600 nm}=0.3 was prepared using 2×YT/Amp/1% Glu. The”
as §3

[8] = molecular target: T6, IgG-Free, Protease-Free Bovine Serum Albumin (bovine, UniProt P02769 25-607); experiment: phage ELISA, BSA immobilized on a Maxisorp plate, two-fold dilutions of phage stock, anti-M13-HRP, OD405 nm [A) (2]
T6 construct: also called BSA
Experimental: as §1
as §2, with “Each Maxisorp plate was washed with TBST. Then, an Anti-M13 antibody diluted 5000-fold was added thereto.” left out

T1 sequence (P15692 other isoform, or with tags, fused parts or gaps limits assumed): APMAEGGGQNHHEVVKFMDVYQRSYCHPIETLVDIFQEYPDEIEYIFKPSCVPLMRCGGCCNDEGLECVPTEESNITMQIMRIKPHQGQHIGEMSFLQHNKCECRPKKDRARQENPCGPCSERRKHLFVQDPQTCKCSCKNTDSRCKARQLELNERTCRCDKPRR
T4 sequence (P29317 25-534 limits assumed): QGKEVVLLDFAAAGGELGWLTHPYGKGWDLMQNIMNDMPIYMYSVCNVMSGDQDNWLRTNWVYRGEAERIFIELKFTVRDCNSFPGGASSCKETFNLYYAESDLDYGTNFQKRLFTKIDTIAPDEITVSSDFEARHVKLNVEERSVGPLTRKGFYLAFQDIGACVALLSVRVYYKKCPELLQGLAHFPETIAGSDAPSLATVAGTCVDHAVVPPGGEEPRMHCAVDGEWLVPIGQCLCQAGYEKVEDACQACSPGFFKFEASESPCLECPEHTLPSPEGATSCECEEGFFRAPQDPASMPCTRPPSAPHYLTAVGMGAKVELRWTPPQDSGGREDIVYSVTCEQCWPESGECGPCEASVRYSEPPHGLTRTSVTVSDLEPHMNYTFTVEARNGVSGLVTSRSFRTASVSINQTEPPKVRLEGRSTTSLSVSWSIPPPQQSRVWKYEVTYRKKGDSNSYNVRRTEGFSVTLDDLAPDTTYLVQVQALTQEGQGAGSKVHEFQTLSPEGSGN
T5 sequence (P29317 24-976): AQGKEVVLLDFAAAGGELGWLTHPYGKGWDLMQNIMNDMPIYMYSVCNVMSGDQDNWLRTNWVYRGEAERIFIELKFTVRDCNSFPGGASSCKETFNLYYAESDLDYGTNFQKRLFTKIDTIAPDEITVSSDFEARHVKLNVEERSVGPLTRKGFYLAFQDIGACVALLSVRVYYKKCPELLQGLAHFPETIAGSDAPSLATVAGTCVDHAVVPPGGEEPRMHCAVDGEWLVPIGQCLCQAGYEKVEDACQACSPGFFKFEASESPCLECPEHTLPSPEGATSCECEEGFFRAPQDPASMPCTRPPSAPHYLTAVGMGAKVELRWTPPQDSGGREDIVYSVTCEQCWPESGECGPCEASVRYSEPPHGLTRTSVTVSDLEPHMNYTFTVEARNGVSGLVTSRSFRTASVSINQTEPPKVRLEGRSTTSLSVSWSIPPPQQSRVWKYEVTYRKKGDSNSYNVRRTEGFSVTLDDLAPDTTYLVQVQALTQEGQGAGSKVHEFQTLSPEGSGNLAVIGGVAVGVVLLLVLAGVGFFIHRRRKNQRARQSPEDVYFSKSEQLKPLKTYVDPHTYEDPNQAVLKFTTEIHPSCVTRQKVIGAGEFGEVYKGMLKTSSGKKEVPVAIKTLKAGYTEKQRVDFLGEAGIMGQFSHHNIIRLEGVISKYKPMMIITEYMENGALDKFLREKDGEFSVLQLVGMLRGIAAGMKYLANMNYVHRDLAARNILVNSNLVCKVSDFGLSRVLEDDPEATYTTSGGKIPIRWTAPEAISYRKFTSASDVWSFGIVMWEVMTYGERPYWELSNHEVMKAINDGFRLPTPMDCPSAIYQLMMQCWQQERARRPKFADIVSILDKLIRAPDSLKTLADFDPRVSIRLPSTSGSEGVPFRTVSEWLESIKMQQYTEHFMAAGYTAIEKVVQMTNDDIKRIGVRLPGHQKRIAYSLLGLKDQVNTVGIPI
T3 sequence (P01375 77-233 limits assumed): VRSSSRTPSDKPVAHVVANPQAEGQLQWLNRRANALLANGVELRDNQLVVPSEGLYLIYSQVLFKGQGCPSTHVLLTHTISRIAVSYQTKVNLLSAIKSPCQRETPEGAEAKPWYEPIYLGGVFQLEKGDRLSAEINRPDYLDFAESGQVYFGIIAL
T6 sequence (P02769 25-607 limits assumed): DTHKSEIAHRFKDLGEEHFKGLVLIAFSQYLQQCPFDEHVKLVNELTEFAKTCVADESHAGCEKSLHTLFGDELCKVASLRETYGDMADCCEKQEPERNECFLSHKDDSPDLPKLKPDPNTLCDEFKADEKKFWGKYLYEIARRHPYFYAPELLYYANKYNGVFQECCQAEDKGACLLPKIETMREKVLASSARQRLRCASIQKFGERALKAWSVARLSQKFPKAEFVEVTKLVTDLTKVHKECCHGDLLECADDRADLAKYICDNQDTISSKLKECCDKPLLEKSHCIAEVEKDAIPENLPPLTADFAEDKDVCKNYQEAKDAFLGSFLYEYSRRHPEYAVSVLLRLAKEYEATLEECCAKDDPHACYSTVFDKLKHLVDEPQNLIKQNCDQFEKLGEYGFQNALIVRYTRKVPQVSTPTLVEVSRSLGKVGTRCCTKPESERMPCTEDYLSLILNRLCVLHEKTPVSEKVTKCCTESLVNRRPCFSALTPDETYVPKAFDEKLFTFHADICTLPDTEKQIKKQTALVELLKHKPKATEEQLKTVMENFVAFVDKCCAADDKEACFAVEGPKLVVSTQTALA

SLSCRKEQGKWYMTWESDCKSCASWCGSHPFDCAYFCEN (designed binder) [human VEGF-binding peptide (1)]
binding result [1]: binds

SLSCRKEQGKEYGAIAWDCSSCASYCGAHPFECAYFCEN (designed binder) [human EGFR-binding peptide (2)]
binding result [2]: binds

SLSCRKEQGKQYMAGHFDCNSCASRYGHHPLMCAYFCEN (designed binder) [human TNFα-binding peptide (1)]
binding result (Recombinant Human TNF-α): binds

SLSCRKEQGKHYLLKEYDCDSCASECGYHPDYCAYFCEN (designed binder, also called α-EphA2 #3) [α-EphA2 TACI_d2 #3]
binding result [3]: binds

SLSCRKEQGKSYGAIMYDCSSCASYCGEHPWHCAYFCEN (designed binder) [human EGFR-binding peptide (1)]
binding result [2]: binds

SLSCRKEQGKIYNQYGFDCKSCASWCGKHPDMCAYFCEN (designed binder) [human VEGF-binding peptide (4)]
binding result [1]: binds

SLSCRKEQGKNYIHQQWDCASCASECGGHPNYCAYFCEN (designed binder) [human EGFR-binding peptide (3)]
binding result [2]: binds

SLSCRKEQGKMYLLKEWDCASCASACGNHPHYCAYFCEN (designed binder, also called α-EphA2 #2) [α-EphA2 TACI_d2 #2]
binding result [3]: binds
binding result [4]: binds

SLSCRKEQGKDYMVFGQDCHSCASWCGKHPVACAYFCEN (designed binder) [human VEGF-binding peptide (6)]
binding result [1]: binds

B1: hVEGF-binding TACI_d2 mutant (No. 9 in FIG. 4), purified monomer (designed binder)
chain: SLSCRKEQGKMYDLYGFDCRSCASMCGKHPDLCAYFCEN
notes: Expressed from pET-32a in E. coli Origami B; thioredoxin tag and His tag removed by thrombin cleavage; monomer peak of size exclusion chromatography used; also called the mutant
Kd [5]: 14 µM

SLSCRKEQGKMYDLYGFDCRSCASMCGKHPDLCAYFCEN (designed binder, The purified free form is m26) [human VEGF-binding peptide (2), phage-displayed]
binding result [1]: binds

SLSCRKEQGKMYMVWTQDCKSCASWCGAHPVACAYFCEN (designed binder) [human VEGF-binding peptide (3)]
binding result [1]: binds

SLSCRKEQGKSYTSEWFDCASCASKYGKHPLVCAYFCEN (designed binder) [human TNFα-binding peptide (3)]
binding result (Recombinant Human TNF-α): binds

SLSCRKEQGKQYLLREWDCDSCASECGSHPHYCAYFCEN (designed binder, also called α-EphA2 #1) [α-EphA2 TACI_d2 #1]
binding result [3]: binds
binding result [6]: binds

SLSCRKEQGKFYDHLLRDCISCASICGQHPKQCAYFCENKLR (receptor, UniProt O14836 68-109, looked up, also called WT) [wild-type TACI_d2]
binding result [7]: no binding
binding result [3]: no binding
binding result [8]: no binding

SLSCRKEQGKIYMTWHDDCHSCASLCGSHPLFCAYFCEN (designed binder) [human VEGF-binding peptide (5)]
binding result [1]: binds

SLSCRKEQDKTYIEYGFDCRSCASGCGGHPLMCAYFCEN (designed binder) [human TNFα-binding peptide (2)]
binding result (Recombinant Human TNF-α): binds
